From article PMC7414962, “Screening and Evaluation of New Hydroxymethylfurfural Oxidases for Furandicarboxylic Acid Production” (Applied and Environmental Microbiology, 2020) come the findings set out here.

By Km is commonly meant the substrate concentration at which the rate is half of its maximum. The kcat is the maximal rate divided by the concentration of active sites.

For one data set, the target named is T1, PsespHMFO (Pseudomonas sp. 11/12A, UniProt Z9N8I9PR93).
T1 sequence (Z9N8I9PR93 1-530): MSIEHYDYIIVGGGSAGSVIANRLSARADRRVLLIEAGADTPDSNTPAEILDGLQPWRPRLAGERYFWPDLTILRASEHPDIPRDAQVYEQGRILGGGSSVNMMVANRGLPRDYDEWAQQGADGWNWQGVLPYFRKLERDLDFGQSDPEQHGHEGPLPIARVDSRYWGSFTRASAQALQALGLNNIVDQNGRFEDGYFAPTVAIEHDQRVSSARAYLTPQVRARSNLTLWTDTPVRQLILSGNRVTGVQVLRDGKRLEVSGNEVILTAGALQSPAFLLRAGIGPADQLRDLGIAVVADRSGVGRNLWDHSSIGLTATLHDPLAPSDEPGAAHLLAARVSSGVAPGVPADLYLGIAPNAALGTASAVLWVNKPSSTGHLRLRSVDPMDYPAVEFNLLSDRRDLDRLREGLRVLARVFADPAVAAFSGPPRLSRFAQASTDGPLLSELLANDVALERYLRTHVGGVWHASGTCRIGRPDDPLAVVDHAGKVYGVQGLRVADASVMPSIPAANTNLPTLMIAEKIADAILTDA
As to the kind of experiment: UV-visible flavin spectrum; FAD release on heat denaturation. Format: binding. The note with it: 50 mM Tris-HCl, pH 7.0, 25°C; co-purified prosthetic group.

The next data set has as its target T2, MetspHMFO^His (Methylovorus sp. MP688, UniProt E4QP00).
T2 construct: gene MPQ_0130
T2 sequence (E4QP00 1-531): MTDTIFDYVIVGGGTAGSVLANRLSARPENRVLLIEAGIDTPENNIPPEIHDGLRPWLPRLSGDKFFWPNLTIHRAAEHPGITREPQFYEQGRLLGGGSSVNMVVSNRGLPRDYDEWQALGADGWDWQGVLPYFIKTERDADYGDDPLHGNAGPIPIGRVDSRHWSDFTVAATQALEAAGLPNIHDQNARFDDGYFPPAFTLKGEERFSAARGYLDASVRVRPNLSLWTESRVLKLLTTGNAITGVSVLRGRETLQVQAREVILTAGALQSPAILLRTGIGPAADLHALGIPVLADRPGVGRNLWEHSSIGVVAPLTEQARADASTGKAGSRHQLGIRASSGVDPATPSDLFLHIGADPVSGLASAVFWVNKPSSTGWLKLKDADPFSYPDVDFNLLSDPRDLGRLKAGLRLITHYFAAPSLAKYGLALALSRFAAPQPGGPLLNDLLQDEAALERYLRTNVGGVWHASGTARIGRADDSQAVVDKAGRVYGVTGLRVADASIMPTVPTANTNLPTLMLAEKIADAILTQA
The data set is described as above. Type of data set: binding. The note with it: 50 mM Tris-HCl, pH 7.0, 25°C; co-purified prosthetic group.

The target in a further data set is T3, MetspHMFO (Methylovorus sp. MP688, UniProt E4QP00).
T3 construct: gene MPQ_0130
T3 sequence (E4QP00 1-531): T2 sequence (E4QP00 1-531)
Described as above. The note with it: 50 mM Tris-HCl, pH 7.0, 25°C; co-purified prosthetic group. Format: binding.

The target of another data set is T4, PseniHMFO^His (Pseudomonas nitroreducens, UniProt A0A6G6IPZ6).
T4 construct: gene G5B91_01695
T4 sequence (A0A6G6IPZ6 1-531): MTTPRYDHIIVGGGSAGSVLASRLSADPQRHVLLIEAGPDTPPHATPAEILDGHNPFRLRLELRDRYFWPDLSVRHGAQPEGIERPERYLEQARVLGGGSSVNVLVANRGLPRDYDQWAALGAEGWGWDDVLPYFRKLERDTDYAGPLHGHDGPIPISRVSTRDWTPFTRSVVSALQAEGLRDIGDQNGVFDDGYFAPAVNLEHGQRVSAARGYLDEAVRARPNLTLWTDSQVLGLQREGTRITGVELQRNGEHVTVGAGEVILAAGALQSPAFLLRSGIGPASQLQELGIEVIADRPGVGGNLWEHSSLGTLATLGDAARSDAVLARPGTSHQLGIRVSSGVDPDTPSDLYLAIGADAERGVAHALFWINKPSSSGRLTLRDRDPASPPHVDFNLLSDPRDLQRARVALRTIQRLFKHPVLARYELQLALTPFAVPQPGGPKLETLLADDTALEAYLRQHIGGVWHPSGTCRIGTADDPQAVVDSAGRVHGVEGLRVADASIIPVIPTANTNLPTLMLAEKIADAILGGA
Described as above. The conditions noted are these: 50 mM Tris-HCl, pH 7.0, 25°C; co-purified prosthetic group. Format: binding.

Substrate in data set [1]: O=Cc1ccc(C=O)o1
As to the kind of experiment: HRP/AmplexRed-coupled H2O2 assay. Format: biochemical, Pseudomonas nitroreducens. The conditions noted are these: 50 mM Tris-HCl, pH 7.0, 25°C, O2. The source says:
(§1) HRP/AmplexRed-coupled H2O2 assay on PseniHMFO^His

Substrate in data set [2]: O=Cc1ccc(CO)o1
As to the kind of experiment: HRP/AmplexRed-coupled H2O2 assay. Type of data set: biochemical, Pseudomonas nitroreducens. The conditions noted are these: 50 mM Tris-HCl, pH 7.0, 25°C, O2.
Source text: as §1

Substrate in data set [3]: COc1cc(CO)ccc1O
As to the kind of experiment: steady-state, direct spectrophotometry of vanillin. Type of data set: biochemical, Pseudomonas nitroreducens. The note with it: 50 mM Tris-HCl, pH 10, 25°C, O2. The source says:
steady-state, direct spectrophotometry of vanillin on PseniHMFO^His

Substrate in data set [4]: O=Cc1ccc(C=O)o1
Nature of the data set: HRP/AmplexRed-coupled H2O2 assay. Format: biochemical, Methylovorus sp. MP688. The conditions noted are these: 50 mM Tris-HCl, pH 7.0, 25°C, O2. From the text: HRP/AmplexRed-coupled H2O2 assay on MetspHMFO

Substrate in the data set “purified protein”: O=Cc1ccc(CO)o1
Nature of the data set: purified protein. The note with it: 50 mM Tris-HCl, pH 7.0, 25°C, O2.

Substrate in data set [5]: COc1cc(CO)ccc1O
Nature of the data set: steady-state, direct spectrophotometry of vanillin. Type of data set: biochemical, Methylovorus sp. MP688. The note with it: 50 mM Tris-HCl, pH 7.0, 25°C, O2. From the text:
steady-state, direct spectrophotometry of vanillin on MetspHMFO

Substrate in data set [6]: O=Cc1ccc(C=O)o1
Nature of the data set: HRP/AmplexRed-coupled H2O2 assay. Type of data set: biochemical, Methylovorus sp. MP688. The note with it: 50 mM Tris-HCl, pH 7.0, 25°C, O2. The source says: HRP/AmplexRed-coupled H2O2 assay on MetspHMFO^His
The source holds these as a separate data set.

Substrate in data set [7]: COc1cc(CO)ccc1O
As to the kind of experiment: steady-state, direct spectrophotometry of vanillin. Format: biochemical, Methylovorus sp. MP688. The conditions noted are these: 50 mM Tris-HCl, pH 7.0, 25°C, O2. From the text: steady-state, direct spectrophotometry of vanillin on MetspHMFO^His
This is another data set of the same source.

Take `Cc1cc2nc3c(=O)[nH]c(=O)nc-3n(C[C@H](O)[C@H](O)[C@H](O)COP(=O)(O)OP(=O)(O)OC[C@H]3O[C@@H](n4cnc5c(N)ncnc54)[C@H](O)[C@@H]3O)c2cc1C` [FAD]: the “UV-visible flavin spectrum; FAD release on heat denaturation” value at PsespHMFO, at MetspHMFO^His, at MetspHMFO and at PseniHMFO^His was “The enzymes showed UV-visible spectra characteristic of FAD-containing proteins” throughout.

B1: PseniHMFO^His (Pseudomonas nitroreducens) (protein)
chain: T4 sequence (A0A6G6IPZ6 1-531)
Consider B1, for which the Km in data set [1] amounted to 4.8 ± 1.9 mM; in data set [2], 5.1 ± 1.1 mM; in data set [3], 0.8 ± 0.2 mM. The kcat stood at 0.0167 ± 0.0017 s⁻¹ in data set [1] and 0.238 ± 0.015 s⁻¹ in [2].

B2: MetspHMFO (Methylovorus sp. MP688) (protein)
chain: T2 sequence (E4QP00 1-531)
For the molecule B2, the Michaelis constant (Km) in data set [4] was found to be 6.8 ± 0.6 mM; in the data set “purified protein” it was 9.1 ± 0.7 mM; in data set [5] it was 0.5 ± 0.1 mM. The figures for the kcat (in [4]; in “purified protein”; in [5]) were 0.102 ± 0.0033 s⁻¹, 1.38 ± 0.0267 s⁻¹ and 19.5 ± 1.33 s⁻¹, respectively.

B3: MetspHMFO^His (Methylovorus sp. MP688) (protein)
chain: T2 sequence (E4QP00 1-531)
For B3, the Km was determined as 4.8 ± 1.9 mM in data set [6], 0.6 ± 0.03 mM in data set [7] and 6.8 ± 0.8 mM in “purified protein”. Also, the kcat came out at 0.0417 ± 0.005 s⁻¹ in data set [6], 19.83 ± 0.833 s⁻¹ in data set [7] and 1.61 ± 0.0633 s⁻¹ in “purified protein”.
